In the DeepSol protein solubility set:

Experiment: soluble on expression in E. coli; label from the status in PepcDB or PDB records
For “MSLGSNKTIIINLNNLEHNLNLIKNKIGEKEIVATLKGDAYGHGLINIFKFLKSKNINYFGLSNIEDAKTLKKIDKNIKILMYIKVDKKEIKNLIKFELVPFVSDFEYLFLIEKECALQKNKIKVHLKIDIGMNRYGIKIDDALEIATYIQNSKFLELEGICSHLPSIENFKTTQKQIEQFLFFLETLKQKNIHPKFVHISNSGHIINYKLNPQFNMVRPGLILYGYCQSEGHHHHHH”, the “soluble on expression in E. coli” value was “not soluble”. With “MSLGTLASLHLNSGDAHHKQRTVTILEFSSSLKLVYKPRSLKVDGVFNGLLAFLNDRTGEVIKDQYCPKVLQRDGYGYVEFVTHQSCQSLEEVSDFYERLGSLMSLSYVLNSSDFHFENIIAHGPYPVLIDLETIIHNTADSSEETSTAMDRAFRMLNDSVLSTGMLPSSIYYRDQPNMKGLNVGGVSKSEGQKTPFKVNQIANRNTDEMRIEKDHVTLSSQKNLPIFQSAAMESVHFLDQIQKGFTSMYQWIEKNKQEFKEQVRKFEGVPVRAVLRSTTRYTELLKSSYHPDLLRSALDREVLLNRLTVDSVMTPYLKEIIPLEVEDLLNGDVPYFYTLPEERALYQEASAINSTFFTTSIFHKIDQKIDKLGIEDHTQQMKILHMSMLASNANHYADVADLEGHHHHHH” the “soluble on expression in E. coli” value was “not soluble”. For “MSLGTMSTEATLLERCQSQCELCAASTPLSPFVVAPHALVTVDHAVMLCDTCKGQIENPETVDMNHWRCLNDSMWSQVQPVQVLAWRQLKRISETEGWARDLLDMMYLDEETAKWAEIGMDDDAEKPRDVNGVELKKGDDVTVIKDLPVKGSSMVIKQGTAVRGIALTEDPKHIQGKVNGQTMYIIAEYCRKKEGGSHHHHHH”, the “soluble on expression in E. coli” value was “soluble”. In the case of “MSLGTSYSEGVSSIHMVKGERGSNNLELTSESLSSTNDTIRRLQRDLLFLQNELRFEKFVRQQHLQNIGKLHREHILDMAVESERQKLLLTNKRYKAQIELLNSEIDKHRSESQAALNRRVKWENDFNNKIKALREEKKAWKSEESELKSSIESLISQLESIRNSQIDIAFSKNQLELKLQLYETKLKEYEQHLSCVNISKKQVSSSSDTSFGNTKMDSSMILSNSEAVSDEQERELIESEKHRMKLESENLHLQANIELLKKDLEAINVVYEAKIFDLEKRLSSEANAPELHNPVNLNYDAQLSKISEIKENYDELLTRYRELEGKFLESQAEVEELKNFQKPLVDTGSSIHSSPGLQEGHHHHHH”, the “soluble on expression in E. coli” value is reported as “soluble”. For “MSLHDLLMIDGLQYSNWSQDIFQQMQAGGLSAVHATIAYHENARETLSRLGEWNRRFETWPELIRPVRTASDIRLAHEEGRVGIFFGFQNCSPIEDDIALVEVFRQLGVFVMQLTYNNQSLLASGCYEREDNGISRFGRQVIAEMNRVGMLIDMSHSAERSTLEAIELSSRPVIISHANPASFHAAKRNKSDAVLRGIAESGGLLGFSTYPFHLKGASDCSLESFCDMVARTADLMGVEHIGIGTDLCQAQPLSVLEWMRNGRWSKDKDYGEGSRDNANWPAPLQWFRDSRDLRNIAQGLRARGFAEHDVGNIMGLNWLRLLETATTAQAEGHHHHHH”, the “soluble on expression in E. coli” value was “soluble”. With “MSLHRFQYKAYRRSFAGTFANARESFAKREGLMIRLEDRDGRVGFGEVAPIVSFGSESFASAFSVAESLGEQVAFERVLPELAGYPCLRWACESALDMIAREGVWEELEKPWPICGLVADLGDLASVEEKLGMHYQCLKFKIGKKSLIEELKALDRVIELSEGKVQIRLDANGTLDMRTAIGWLERVAGLPVEFIEQPLPVGAEVEMRRLSADFPTLLALDESVDSVDDLKRWRDQQWPGLYVIKPSLSGSLLALGEELSGGAGDCVFSSSLETKIGESNAIGFAIRQSGHGRALGFGVERLFADRNVGLELGPFLQKGGLASSDDLESLWNLTEGHHHHHH” the “soluble on expression in E. coli” value was “soluble”. For “MSLICKRFALVGSGFIGQVHAASLARHEGSALTMVADAAPERAQALAARYGARAVTVSEAIHSDAIDAVLIASSTPSHAELLEAAARAGKAVYCEKPIDLSLARAREVVERVLPLNVPVTVGFNRRFDSSHQQLRRQLEQGLIGRVELVQMVCRASSMPPLDYLRSSGGQMRDQAIHFFDLLRFLTGDEVRTVAAMGAALALPDIAEFGDVDTSILMMQMRGGALAQLDNTRRTGHGYDERITLLGAEGALESGSQSPAGPTLWRGNQRIEPGLWPDWFSRVQGSYYQHLDAFIRSLNGETVADLPGLLDGLQAQAIAEAAVQSLQHGQFVAVDDEGHHHHHH”, the “soluble on expression in E. coli” value was “soluble”. With “MSLIDKTKLLQNFQFHLPTGYHKESLARLNFMKGKPLRDAAVLIGFVDRPEGLQVILTKRAEHLRHHPGQISFPGGKFEPEDIHLVNTALRETNEEVGIEDKHIHVFGQLPKLPTISQFNVTPFLAFISPDYKTHIDPNEVESVFEVPANHILNPNKLYSSKFELKRSSHRVFAIPYRQHFIWGMTAQIIESMQKHIISGEGHHHHHH” the “soluble on expression in E. coli” value was “soluble”. For “MSLIIPEKFQHIHRVMNTNIDGNRKVPYALTAIKGVGRRFAFVCCRKADVDVNKRAGELTEEDFDKIVTIMQNPSQYKIPNWFLNRQKDIKDGKTGQLLSTAVDNKLREDLERMKKIRLHRGLRHYWGLRVRGQHTKTTGRKGRTVGVSKKKGG”, the “soluble on expression in E. coli” value was “not soluble”. In the case of “MSLILRWGIIGPGWIAERFVHSLKTYSRQQVVAVASRSQAKADRVAAEWGIPQAYGQVEEMLARPDIDAVYIATPHNHHFPDGMQALKAGKHVLIEKPFALNLGEGRELQAEAARQEKLALEAMWCDYAPKYDVIRQLLEDGALGDLHTLLADHGEYFTRDHRIFNADLAGGPMMDLGSYVTSFALMVGGMPQEIVARGSATAEGLNGQTSMLFSWQNGMQGLLNTTLFSNTPGGAVVAGRQATLTIDGQFYAPGGFTLAASQGGQVLRWEEPRNRYDQLFWQAEHFAWCIGQGLQDSPLRPLSRVLQNLQVMDEVRRQVGAVFNEEREGHHHHHH”, the “soluble on expression in E. coli” value is reported as “not soluble”. In the case of “MSLILVYSTFPNEEKALEIGRKLLEKRLIACFNAFEIRSGYWWKGEIVQDKEWAAIFKTTEEKEKELYEELRKLHPYETPAIFTLKVENVLTEYMNWLRESVLEGGSHHHHHH”, the “soluble on expression in E. coli” value is reported as “soluble”. For “MSLINTQRLVDHFLQLIQIDSESGNEKKIAETLAEQLGELGFTVHKLPVPAEVSNGFNLYARLEGTLNDSILFSCHMDTVKPGIGIEPVIEDGIIRSKGNTILGGDDKSGIAAILEAVRVLRDSQQAHKTIEIAFTVHEEGGLKGSEHFDMSKVQAEKAIVLDTGGPIGTIVRAAPGQQKIVALIKGKPAHAGLVPEDGISAIAVAADAITQMKLLRIDEETTANIGIVQGGQATNIVMPELKIVAEARSLNDAKLEAQVQHMIETFERAAEKHGATVEIESTRAYNAFKLEEDNAHIQAIKASFETIGIEPKTKLSGGGSDANNFNAKGLTTVNLSTGMAKVHTTEEYIAIADMVKIAEFVCAYTTA”, the “soluble on expression in E. coli” value was “not soluble”. In the case of “MSLIQTIENRLINGGELTLEEALLLASSADKEALYEAAHRITRYFMGDKFDTCSIINAKSGNCPEDCKWCAQSRHYAASIEKYGLLSAAVCAEQAAYNRRQGIGRFSLVASGRTASMNEIRQMAESYRAIKQRTDIKCCASLGLLSEEKLQILFDNGVTTYHCNMETAPSFFPSLCSTHTQDEKLATIRAARRVGMRVCSGGIIGMGETMEQRIEFAFYLHSINVYSIPINILQPIPGTPLERTLPLSEEEYLTTVALFRLINPRAFLRFSGGRAQLSPAVQRKAIYIGINAAITGDLLTTTGSKAAEDMQLVRECGFQVTNDTDWEVSYDHEGHHHHHH”, the “soluble on expression in E. coli” value is reported as “not soluble”. For “MSLIRCTDINEITPFSSFISKIPNHCGTHMDASRHFVKDGLSINELPIGYFCHKDVVLLEVPKGEAEGITKEDLEPYAAILAQVSFAFLCTGFEKYRTENPLIYQNEGPYIATSAGKYLSDNYPNLKGVGIWFPCTWFAVFSCTEGHHHHHH”, the “soluble on expression in E. coli” value was “not soluble”. With “MSLKAAVYEGKKAIKMTELPTPKAGPNDVVIQNIYAGICGSDVAVYNHGSGTGHKIETDHEFGHEAVSKVVEVGDDVHDFKIGDRVYPYPLLARGDPSRAGSMGGFSEYILIPNAKLNRQLYLVPKEIDNHVAAMIEPFTVGTRAAKQTRPDKNDNAIVYGTGTIGMAAAVALKHLGVKQVMLVDLSDYRLNVAKELGFLTVNSSRDDVRSQAIEAFGKAEYSLHGEAPDTQIFLDAAGHNSILEDFLQFGPVGSRFVTVGVNNSKPQIDFLELIFGSKSVGGSGGYRPEDVQTVFEIMKERQSDLRKMVSQEFDWQDLEKGIQTATDTTISEKVLINYHEGHHHHHH” the “soluble on expression in E. coli” value was “soluble”. For “MSLKARSPYSPAEEDALFMDLPTGPRGQQAQPQRAEKNGMLPASYGPGEQNGTGGYQRAFPPRTNPEKHSQRKSNLAQVEHWARAQKGDSRSLPLDQTLPRQGPGQSLSFPENYQTLPKSTRHPSGGSSPPPRNLPSDYKYAQDRASHLKMSSEERRAHRDGTVWQLYEWQQRQQFRHGSPTAPICLGSPEFTDQGRSRSMLEVPRSISVPPSPSDIPPPGPPRVFPPRRPHTPAERVTVKPPDQRRSVDISLGDSPRRARGHAVKNSSHVDRRSMPSMGYMTHTVSAPSLHGKSADDTYLQLKKDLEYLDLKMTGRDLLKDRSLKPVKIAESDTDVKLSIFCEQDRVLQDLEDKIRALKENKDQLESVLEVLHRQMEQYRDQPQHLEKIAYQQKLLQEDLVHIRAELSRESTEMENAWNEYLKLENDVEQLKQTLQEQHRRAFFFQEKSQIQKDLWRIEDVTAGLSANKENFRILVESVKNPERKTVPLFPHEGHHHHHH”, the “soluble on expression in E. coli” value was “not soluble”. In the case of “MSLKAVTQCSQFFHEVSLPHLKPETTYYYRIPAANGTTESDILSFTTARAPGDKRSFTVAVLNDMGYTNAQGTHRQLLKAANEGAAFAWHGGDLSYADDWFSGILPCADDWPVCYNGTSTQLPGGGPIPEEYKQPLPQGETANQGGPQGGDMSVLYESNWDLWQQWMTNLTVKIPHMVMPGNHESACAEFDGPGNPITAYLNEGIPNGTWPAENLTYYSCPPSQRNFTAFQHRFHMPGKETGGVGNFWYSFDYGLAHFVSLDGETDFANSPFSTFERDLTGNETHPRPEETETTDSGPFGTIDGDRYDDNTAYAQYQWLKRDLASVDRTKTPWVFVMSHRPMYSSAYSSYQTNVRNAFENLLLQYGVDAYLSGHIHWYERMFPMTANGTIDESSIADNHTYTTNSGKSMTHIINGMAGNIESHSWFDEGEGLTEITAKLDRTHFGFSKLTVVNETVVNWEFVKGDDGSTGDWLTLVKGETCTINEGHHHHHH”, the “soluble on expression in E. coli” value is reported as “not soluble”. In the case of “MSLKCETERSKTWNNFGNGIPCVLGIDEAGRGPVLGPMVYAAAISPLDQNVELKNLGVDDSKALNEAKREEIFNKMNEDEDIQQIIAYALRCLSPELISCSMLKRQKYSLNEVSHEAAITLIRDALACNVNVVEIKVDTVGPKATYQAKLEKLFPGISICVTEKADSLFPIVSAASIAAKVTRDSRLRNWQFREKNIKVPDAGYGSGYPGDPNTKKFLQLSVEPVFGFCSLVRSSWKTASTIVEKRCVPGSWEDDEEEGKSQSKRMTSWMVPKNETEVVPKRNVYFKERHMSNILTF”, the “soluble on expression in E. coli” value is reported as “not soluble”. For “MSLKDMIDSIEQFAQTQADFPVYDCLGERRTYGQLKRDSDSIAAFIDSLALLAKSPVLVFGAQTYDMLATFVALTKSGHAYIPVDVHSAPERILAIIEIAKPSLIIAIEEFPLTIEGISLVSLSEIESAKLAEMPYERTHSVKGDDNYYIIFTSGTTGQPKGVQISHDNLLSFTNWMIEDAAFDVPKQPQMLAQPPYSFDLSVMYWAPTLALGGTLFALPKELVADFKQLFTTIAQLPVGIWTSTPSFADMAMLSDDFCQAKMPALTHFYFDGEELTVSTARKLFERFPSAKIINAYGPTEATVALSAIEITREMVDNYTRLPIGYPKPDSPTYIIDEDGKELSSGEQGEIIVTGPAVSKGYLNNPEKTAEAFFTFKGQPAYHTGDIGSLTEDNILLYGGRLDFQIKYAGYRIELEDVSQQLNQSPMVASAVAVPRYNKEHKVQNLLAYIVVKDGVKERFDRELELTKAIKASVKDHMMSYMMPSKFLYRDSLPLTPNGKIDIKTLINEVNNREGHHHHHH”, the “soluble on expression in E. coli” value was “soluble”.
